The values that follow come from doi:10.1101/2022.10.04.510822 (bioRxiv, 2022).

The test concerns the target GST-GABARAP (human, UniProt O95166 1-117). Put plainly: pull-down.

Sequence of GST-GABARAP (O95166 whole entry): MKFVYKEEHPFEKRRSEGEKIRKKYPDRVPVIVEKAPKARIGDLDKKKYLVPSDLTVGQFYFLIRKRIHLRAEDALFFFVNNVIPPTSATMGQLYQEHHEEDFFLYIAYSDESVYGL

B1: WSTF peptide PP4 (residues 466-492) (peptide)
peptide: KPHKHLPPAALHLIAYYKENKDREDKR
Take B1: the binding result was “binds”.
